Reference: patent publication US6713265
pIC50, pKi: −log10 of the molar value. Where two headings read alike, the source gives them in different places. One block for each substance: values may come before it.

Tests used:
[1] = biological target: rat hypothalamic Y5 receptor (rat) (UniProt Q63634); test: 125I-PYY displacement, COS-7 membranes
[2] = biological target: rat hypothalamic Y5 receptor (rat) (UniProt Q63634); test: cell-based or functional assay
[3] = biological target: canine Y5 receptor (canine) (UniProt O62729); test: 125I-PYY displacement, COS-7 membranes
[4] = biological target: human Y1 receptor (human) (UniProt P25929); test: 125I-PYY displacement, COS-7 membranes
[5] = biological target: human Y2 receptor (human) (UniProt P49146); test: 125I-PYY displacement, COS-7 membranes
[6] = biological target: human Y4 receptor (human) (UniProt P50391); test: 125I-PYY displacement, COS-7 membranes
[7] = biological target: rat hypothalamic Y5 receptor (rat) (UniProt Q63634); test: 125I-PYY displacement, COS-7 membranes; remark: listed apart in the source
rat Y1 receptor (rat) = rat Y1 receptor (rat) (UniProt P21555); test: 125I-PYY displacement, COS-7 membranes
rat Y2 receptor (rat) = rat Y2 receptor (rat) (UniProt Q9ERC0); test: 125I-PYY displacement, COS-7 membranes
rat Y4 receptor (rat) = rat Y4 receptor (rat) (UniProt Q63447); test: 125I-PYY displacement, COS-7 membranes
[8] = biological target: human Y5 receptor (human) (UniProt Q15761); test: 125I-PYY displacement, COS-7 membranes
[9] = biological target: rat hypothalamic Y5 receptor (rat) (UniProt Q63634); test: 125I-PYY displacement, COS-7 membranes; remark: listed apart in the source
[10] = biological target: human Y5 receptor (human) (UniProt Q15761); test: 125I-PYY displacement, LM(tk-) membranes
[11] = biological target: human Y5 receptor (human) (UniProt Q15761); test: 125I-PYY3-36 displacement, LM(tk-) membranes
[12] = biological target: human Y5 receptor (human) (UniProt Q15761); test: cell-based or functional assay
[13] = biological target: human Y5 receptor (human) (UniProt Q15761); test: 125I-PYY displacement, COS-7 membranes; remark: listed apart in the source
[14] = biological target: rat hypothalamic membranes (NPY/PYY binding sites); test: 125I-PYY displacement, rat hypothalamic membranes
[15] = biological target: rat hypothalamic membranes (NPY/PYY binding sites); test: 125I-PYY displacement, rat hypothalamic membranes, low-affinity part
[16] = biological target: rat hypothalamic membranes (NPY/PYY binding sites); test: 125I-PYY displacement, rat hypothalamic membranes, high-affinity part
[17] = biological target: rat hypothalamic membranes (NPY/PYY binding sites); test: 125I-PYY3-36 displacement, rat hypothalamic membranes, low-affinity part
[18] = biological target: rat hypothalamic membranes (NPY/PYY binding sites); test: 125I-PYY3-36 displacement, rat hypothalamic membranes, high-affinity part
[19] = biological target: rat hypothalamic membranes (NPY/PYY binding sites); test: 125I-PYY3-36 displacement, rat hypothalamic membranes

rat hypothalamic Y5 receptor (rat), sequence (Q63634 other isoform, or with tags, fused parts or gaps): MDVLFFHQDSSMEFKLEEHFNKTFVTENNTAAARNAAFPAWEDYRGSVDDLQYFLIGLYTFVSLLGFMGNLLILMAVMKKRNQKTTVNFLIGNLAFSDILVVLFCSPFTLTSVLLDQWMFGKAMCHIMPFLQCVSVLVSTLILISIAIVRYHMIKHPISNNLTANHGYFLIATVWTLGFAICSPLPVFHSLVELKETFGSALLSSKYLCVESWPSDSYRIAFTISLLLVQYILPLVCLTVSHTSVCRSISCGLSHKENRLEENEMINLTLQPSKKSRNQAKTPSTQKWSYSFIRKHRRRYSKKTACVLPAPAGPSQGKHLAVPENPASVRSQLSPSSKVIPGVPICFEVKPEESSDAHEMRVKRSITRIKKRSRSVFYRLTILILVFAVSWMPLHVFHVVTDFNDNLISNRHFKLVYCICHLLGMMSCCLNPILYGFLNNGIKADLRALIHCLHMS
human Y5 receptor (human), sequence (Q15761 other isoform, or with tags, fused parts or gaps): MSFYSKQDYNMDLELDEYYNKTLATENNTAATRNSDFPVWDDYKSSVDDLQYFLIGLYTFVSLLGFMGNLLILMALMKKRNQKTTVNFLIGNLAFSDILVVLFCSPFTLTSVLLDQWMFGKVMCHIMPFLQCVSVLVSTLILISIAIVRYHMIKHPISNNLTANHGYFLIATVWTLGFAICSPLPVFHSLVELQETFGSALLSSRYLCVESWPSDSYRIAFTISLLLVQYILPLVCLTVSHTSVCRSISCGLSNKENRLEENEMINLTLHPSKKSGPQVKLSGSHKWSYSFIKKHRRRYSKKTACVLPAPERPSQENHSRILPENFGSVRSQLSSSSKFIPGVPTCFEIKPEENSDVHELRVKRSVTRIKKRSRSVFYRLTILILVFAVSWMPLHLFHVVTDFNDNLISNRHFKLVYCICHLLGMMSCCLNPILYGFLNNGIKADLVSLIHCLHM
rat Y4 receptor (rat), sequence (Q63447 whole entry): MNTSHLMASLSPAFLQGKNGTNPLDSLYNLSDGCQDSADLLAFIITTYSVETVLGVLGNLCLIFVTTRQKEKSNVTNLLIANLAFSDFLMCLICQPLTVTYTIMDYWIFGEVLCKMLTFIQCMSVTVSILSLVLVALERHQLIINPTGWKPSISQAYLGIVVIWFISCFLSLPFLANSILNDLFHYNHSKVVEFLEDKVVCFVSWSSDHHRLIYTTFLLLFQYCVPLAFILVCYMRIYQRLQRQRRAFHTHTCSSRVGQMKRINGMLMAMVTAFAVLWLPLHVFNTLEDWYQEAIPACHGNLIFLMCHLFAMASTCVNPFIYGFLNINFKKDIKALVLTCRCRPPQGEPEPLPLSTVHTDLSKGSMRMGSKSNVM
salmon PP (peptide), sequence (P69092 whole entry): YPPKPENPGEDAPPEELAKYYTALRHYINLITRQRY
human Y4 receptor (human), sequence (P50391 whole entry): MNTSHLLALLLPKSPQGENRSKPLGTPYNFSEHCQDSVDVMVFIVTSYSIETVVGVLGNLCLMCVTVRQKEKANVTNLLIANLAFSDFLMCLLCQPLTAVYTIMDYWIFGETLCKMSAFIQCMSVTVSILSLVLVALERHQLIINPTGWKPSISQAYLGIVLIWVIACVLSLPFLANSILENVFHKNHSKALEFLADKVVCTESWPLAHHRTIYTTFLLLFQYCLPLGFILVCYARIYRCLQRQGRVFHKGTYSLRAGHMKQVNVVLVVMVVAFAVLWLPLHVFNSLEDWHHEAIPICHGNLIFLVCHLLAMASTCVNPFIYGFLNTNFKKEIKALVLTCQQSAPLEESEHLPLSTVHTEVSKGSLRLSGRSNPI
rat Y1 receptor (rat), sequence (P21555 whole entry): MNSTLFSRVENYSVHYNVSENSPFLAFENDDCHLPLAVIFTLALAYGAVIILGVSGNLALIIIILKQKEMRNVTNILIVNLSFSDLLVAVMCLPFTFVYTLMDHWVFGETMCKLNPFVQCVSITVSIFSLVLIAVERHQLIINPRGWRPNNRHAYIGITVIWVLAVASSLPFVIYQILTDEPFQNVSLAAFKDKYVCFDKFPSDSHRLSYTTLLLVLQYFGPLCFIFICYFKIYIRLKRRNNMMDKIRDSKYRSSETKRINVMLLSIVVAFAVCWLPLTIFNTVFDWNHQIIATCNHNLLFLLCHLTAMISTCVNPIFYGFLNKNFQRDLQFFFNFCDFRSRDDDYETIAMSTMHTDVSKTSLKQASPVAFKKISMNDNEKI
rat Y2 receptor (rat), sequence (Q9ERC0 entry or part of it): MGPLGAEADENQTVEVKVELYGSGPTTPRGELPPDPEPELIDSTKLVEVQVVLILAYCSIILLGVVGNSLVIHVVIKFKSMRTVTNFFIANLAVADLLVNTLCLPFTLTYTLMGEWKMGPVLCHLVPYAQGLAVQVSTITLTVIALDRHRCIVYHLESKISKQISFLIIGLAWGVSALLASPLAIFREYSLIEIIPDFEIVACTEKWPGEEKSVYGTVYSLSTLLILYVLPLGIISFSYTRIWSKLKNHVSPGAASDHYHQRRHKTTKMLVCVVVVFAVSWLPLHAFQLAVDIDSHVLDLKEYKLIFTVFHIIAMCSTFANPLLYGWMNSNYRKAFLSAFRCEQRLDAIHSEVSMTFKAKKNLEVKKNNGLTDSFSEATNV
human Y1 receptor (human), sequence (P25929 whole entry): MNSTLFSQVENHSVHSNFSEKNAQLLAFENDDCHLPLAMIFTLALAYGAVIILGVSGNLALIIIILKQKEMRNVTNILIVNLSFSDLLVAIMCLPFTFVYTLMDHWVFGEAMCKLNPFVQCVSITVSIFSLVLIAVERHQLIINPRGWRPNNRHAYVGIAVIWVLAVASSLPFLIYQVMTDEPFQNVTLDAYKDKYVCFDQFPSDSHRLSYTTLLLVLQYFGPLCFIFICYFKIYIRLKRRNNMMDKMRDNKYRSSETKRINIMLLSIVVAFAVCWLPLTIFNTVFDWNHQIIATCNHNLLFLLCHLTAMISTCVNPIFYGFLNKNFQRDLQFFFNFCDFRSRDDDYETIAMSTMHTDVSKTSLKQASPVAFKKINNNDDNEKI
human Y2 receptor (human), sequence (P49146 whole entry): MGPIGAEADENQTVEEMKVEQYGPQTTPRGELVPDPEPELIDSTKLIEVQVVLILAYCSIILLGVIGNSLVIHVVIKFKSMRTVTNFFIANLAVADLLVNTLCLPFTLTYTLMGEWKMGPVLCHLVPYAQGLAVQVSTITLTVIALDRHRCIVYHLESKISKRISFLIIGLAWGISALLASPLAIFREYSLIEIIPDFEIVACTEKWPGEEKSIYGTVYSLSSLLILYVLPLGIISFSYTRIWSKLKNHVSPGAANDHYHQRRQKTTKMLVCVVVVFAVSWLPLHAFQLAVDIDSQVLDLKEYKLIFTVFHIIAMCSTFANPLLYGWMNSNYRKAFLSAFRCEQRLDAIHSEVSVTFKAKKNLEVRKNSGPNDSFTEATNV
canine Y5 receptor (canine), sequence (O62729 other isoform, or with tags, fused parts or gaps): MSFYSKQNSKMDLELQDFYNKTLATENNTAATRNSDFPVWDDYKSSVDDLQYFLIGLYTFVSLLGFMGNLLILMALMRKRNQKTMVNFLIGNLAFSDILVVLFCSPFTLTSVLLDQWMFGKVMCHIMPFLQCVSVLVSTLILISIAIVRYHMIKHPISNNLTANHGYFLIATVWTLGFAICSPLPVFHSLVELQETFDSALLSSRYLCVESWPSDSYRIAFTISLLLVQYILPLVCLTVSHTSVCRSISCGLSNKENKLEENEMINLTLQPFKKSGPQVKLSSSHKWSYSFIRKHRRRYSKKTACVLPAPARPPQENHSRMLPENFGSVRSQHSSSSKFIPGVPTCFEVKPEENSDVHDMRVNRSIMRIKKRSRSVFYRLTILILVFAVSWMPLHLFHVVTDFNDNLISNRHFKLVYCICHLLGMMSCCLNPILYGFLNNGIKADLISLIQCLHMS

Substance: W(nor-L)RF-amide (peptide)
pKi [1]: 5.06

Substance: porcine C2-NPY (peptide)
EC50, inhibition of forskolin-stimulated cAMP accumulation, 293 cells [2]: 240 nM
pKi [3]: 6.52
pKi [4]: 7.10
pKi [5]: 8.46
pKi [6]: 6.92
pKi [7]: 6.33
pKi (rat Y1 receptor (rat)): 6.85
pKi (rat Y2 receptor (rat)): 8.59
pKi (rat Y4 receptor (rat)): 7.66
pKi [8]: 6.43
pKi [9]: 6.59
pKi [10]: 6.59
pKi [11]: 6.66

Substance: human NPY2-36, P01303 30-64 (peptide; other documents disagree on this pair)
pKi (rat Y4 receptor (rat)): 8.30

Substance: human PP (from UniProt P01298 30-65) (peptide)
% NPY-produced displacement [14]: 20%

Substance: human [Leu^31, Pro^34]NPY (from UniProt P01303 29-64) (peptide)
% NPY-produced displacement [15]: 56%
pIC50 [15]: 6.47
% NPY-produced displacement [16]: 44%
pIC50 [16]: 9.68
% NPY-produced displacement [17]: 73%
pIC50 [17]: 6.60
% NPY-produced displacement [18]: 27%
pIC50 [18]: 9.42

Substance: porcine NPY3-36, P01304 12-45 (peptide; other documents disagree on this pair)
pKi (rat Y4 receptor (rat)): 7.44

Substance: human PYY (from UniProt P10082 29-64) (peptide)
% NPY-produced displacement [14]: 100%
% NPY-produced displacement [19]: 100%
pIC50 [19]: 9.54

The remaining lines, values ahead:

% inhibition relative to human NPY, cAMP, LM(tk-) cells [12]: 96%
EC50, inhibition of forskolin-stimulated cAMP accumulation, LM(tk-) cells [12]: 4.5 nM
EC50, inhibition of forskolin-stimulated cAMP accumulation, 293 cells [2]: 0.92 nM
pKi [4]: 9.96
pKi [5]: 9.77
pKi [6]: 8.49
pKi [13]: 9.34
pKi [7]: 9.51
pKi (rat Y1 receptor (rat)): 9.52
pKi (rat Y2 receptor (rat)): 9.80
pKi (rat Y4 receptor (rat)): 8.52
pKi [1]: 9.48
pKi [8]: 9.57
pKi [11]: 9.20
Substance: salmon PP (peptide)

% NPY-produced displacement [14]: 100%
pIC50 [14]: 8.64
% NPY-produced displacement [19]: 100%
pIC50 [19]: 8.92
Substance: human NPY2-36 (from UniProt P01303 30-64) (peptide)

% NPY-produced displacement [14]: 100%
pIC50 [14]: 9.09
% NPY-produced displacement [19]: 100%
Substance: rat/human NPY (from UniProt P01303 29-64) (peptide)

pKi (rat Y4 receptor (rat)): 8.77
Substance: rat/human NPY, P01303 29-64 (peptide; C-terminal amide; other documents disagree on this pair)
